Laboratory results published in patent publication US20250144172A1, “ANTI-FIBROTIC SIALIDASE INHIBITOR COMPOUNDS AND METHODS OF USE” (The Texas A&M University System, priority 2016, published 2025).

B1: NEU4: recombinant human NEU4 (sialidase 4), human neuraminidase 4 (protein, UniProt Q8WWR8 1-484, looked up)
Sialidase-4: MGVPRTPSRTVLFERERTGLTYRVPSLLPVPPGPTLLAFVEQRLSPDDSHAHRLVLRRGTLAGGSVRWGALHVLGTAALAEHRSMNPCPVHDAGTGTVFLFFIAVLGHTPEAVQIATGRNAARLCCVASRDAGLSWGSARDLTEEAIGGAVQDWATFAVGPGHGVQLPSGRLLVPAYTYRVDRRECFGKICRTSPHSFAFYSDDHGRTWRCGGLVPNLRSGECQLAAVDGGQAGSFLYCNARSPLGSRVQALSTDEGTSFLPAERVASLPETAWGCQGSIVGFPAPAPNRPRDDSWSVGPGSPLQPPLLGPGVHEPPEEAAVDPRGGQVPGGPFSRLQPRGDGPRQPGPRPGVSGDVGSWTLALPMPFAAPPQSPTWLLYSHPVGRRARLHMGIRLSQSPLDPRSWTEPWVIYEGPSGYSDLASIGPAPEGGLVFACLYESGARTSYDEISFCTFSLREVLENVPASPKPPNLGDKPRGCCWPS
B2: NEU3: recombinant human sialidase NEU3 (TP316537, Origene) (protein, UniProt Q9UQ49 1-428, looked up)
Sialidase-3: MEEVTTCSFNSPLFRQEDDRGITYRIPALLYIPPTHTFLAFAEKRSTRRDEDALHLVLRRGLRIGQLVQWGPLKPLMEATLPGHRTMNPCPVWEQKSGCVFLFFICVRGHVTERQQIVSGRNAARLCFIYSQDAGCSWSEVRDLTEEVIGSELKHWATFAVGPGHGIQLQSGRLVIPAYTYYIPSWFFCFQLPCKTRPHSLMIYSDDLGVTWHHGRLIRPMVTVECEVAEVTGRAGHPVLYCSARTPNRCRAEALSTDHGEGFQRLALSRQLCEPPHGCQGSVVSFRPLEIPHRCQDSSSKDAPTIQQSSPGSSLRLEEEAGTPSESWLLYSHPTSRKQRVDLGIYLNQTPLEAACWSRPWILHCGPCGYSDLAALEEEGLFGCLFECGTKQECEQIAFRLFTHREILSHLQGDCTSPGRNPSQFKSN
B3: NEU2: recombinant human NEU2 (sialidase 2), human neuraminidase 2 (protein, UniProt Q9Y3R4 1-380, looked up)
Sialidase-2: MASLPVLQKESVFQSGAHAYRIPALLYLPGQQSLLAFAEQRASKKDEHAELIVLRRGDYDAPTHQVQWQAQEVVAQARLDGHRSMNPCPLYDAQTGTLFLFFIAIPGQVTEQQQLQTRANVTRLCQVTSTDHGRTWSSPRDLTDAAIGPAYREWSTFAVGPGHCLQLHDRARSLVVPAYAYRKLHPIQRPIPSAFCFLSHDHGRTWARGHFVAQDTLECQVAEVETGEQRVVTLNARSHLRARVQAQSTNDGLDFQESQLVKKLVEPPPQGCQGSVISFPSPRSGPGSPAQWLLYTHPTHSWQRADLGAYLNPRPPAPEAWSEPVLLAKGSCAYSDLQSMGTGPDGSPLFGCLYEANDYEEIVFLMFTLKQAFPAEYLPQ

Legend:
human PBMC [1] = experiment: TGF-β1 accumulation by human PBMC (antibody staining and ELISA); type: cell-based; details: recombinant sialidase 200 ng/ml; five days
Method: To determine if sialidases might cause cells to accumulate intracellular and extracellular TGF-β1, human PBMC were cultured with sialidases in 96 well plates at 5×10^5 cells/ml and 200 μl/well in FibroLife serum-free medium for five days, then air dried. The levels of TGF-β1 in or on the cells was detected by staining with an antibody against TGF-β1. Photomicrographs were analyzed by counting stained cells (FIG. 7B) and quantifying staining intensity using ImageJ (FIG. 7C).
PBMC were cultured in 96 well plates at 5×10^5 cells/ml and 200 μl/well in FibroLife serum-free medium. When the cells were plated, recombinant human sialidases were added to final concentrations of 200 ng/ml, and DANA or oseltamivir were added to 3 μM. After 5 days, culture supernatants were analyzed using a TGF-β1 ELISA kit (R&D Systems).

[2] = recombinant human sialidase activity, 4MU-NANA cleavage at pH 6.4 and 7.0; type: biochemical
Method: In general, sialidase activity, including human sialidase activity, may be assessed at 37° C. in the presence of buffers ranging in pH from 3.7 to 7.4. Buffers with pH 3.7, 4.0, 4.6, 5.2 and 5.6 are 100 mM sodium acetate buffers. Buffers with pH 5.8, 6.4, 7.0 and 8.0 are based on Phosphate-Buffered Saline (PBS), with addition of 12 N HCl or 1 M NaOH to adjust the pH. Bovine serum albumin (BSA) is added to the buffer at a concentration of 100 ug/ml. Sialidase at a final concentration of 300 ng/ml is then added to the buffer. A sialidase inhibitor is then added to the mixture at a series of final concentrations. The reaction mixture is incubated for 30 minutes to allow the inhibitor to bind the sialidase. The fluorometric substrate 4MU-NANA [2′-(4-Methylumbelliferyl)-α-D-N-acetylneuraminic acid sodium salt hydrate is then added at a final concentration of 200 μM. Control reactions have no added inhibitor. The total volume of each reaction mixture is 0.1 ml. The cleavage of 4MU-NANA is then monitored by fluorescence every 20 minutes for 5 hours with excitation light at 360 nm and the fluorescence emission at 460 nm.
The fluorescence in the absence of sialidases is subtracted from all readings. The fluorescence of known concentrations of 4-methylumbelliferone is used to convert fluorescence to moles of product.
To determine if sialidases have enzymatic activity at the pH of the extracellular environment, sialidases may be assayed at pH 7.0, approximately corresponding to an extracellular pH in a normal tissue, at pH 6.4, approximately corresponding to an extracellular pH in a fibrotic tissue, or both.
In an example assay, recombinant human sialidases were assayed at pH 6.4, approximately corresponding to the extracellular pH that might occur in a fibrotic tissue, and at pH 7.0, approximately corresponding to a normal extracellular pH.

human PBMC [3] = experiment: fibrocyte formation in human PBMC, serum-free medium; type: cell-based; details: 5 days; for ability of SAP to inhibit fibrocyte formation: 100 ng/ml sialidase with 1 μg/ml SAP; for fibrocyte formation / differentiation: 100 ng/ml sialidase, 10 μg/ml DANA or 1 μg/ml SAP
Method: Human peripheral blood was collected from healthy adult volunteers who gave written consent and with specific approval from the Texas A&M University human subjects Institutional Review Board. Peripheral blood mononuclear cells (PBMC) were isolated from blood using Ficoll-Paque Plus (GE Healthcare Biosciences, Piscataway, NJ). Human PBMC were incubated in serum-free medium (FibroLife basal media (LM-0001, Lifeline Cell Technology, Walkersville, MD), supplemented with 10 mM HEPES (Sigma-Aldrich, St. Louis, MO), 1x non-essential amino acids (Sigma-Aldrich), 1 mM sodium pyruvate (Sigma-Aldrich), 2 mM glutamine (Invitrogen, Carlsbad, CA), 100 U/ml penicillin, 100 μg/ml streptomycin (Sigma-Aldrich), and 1x ITS-3 (Sigma-Aldrich) in the presence of absence of 100 ng/ml recombinant human sialidases (Origene, Rockville MD), 10 μg/ml DANA (Calbiochem, San Diego, CA), or 1 μg/ml human SAP (Calbiochem). After 5 days, fibrocytes were counted, and results are presented in FIG. 5.

human PBMC [4] = experiment: IL-6 ELISA of supernatants of human PBMC cultured with NEU3; type: cell-based; details: presence or absence of serum; two or five days
Method: To determine the effects of NEU3 on IL-6 production in human PBMC, human peripheral blood was collected from healthy volunteers who gave written consent and with specific approval from the Texas A&M University human subjects review board. PBMC were isolated from the blood using Ficoll-Paque density gradient centrifugation (GE Healthcare, Cincinnati, OH) following the manufacture's protocol. PBMCs were cultured at 10^5 cells/ml in each well of 96-well flat bottom tissue culture plates (VWR, Radnor, PA) with RPMI-1640 (VWR) supplemented with 10% bovine calf serum (BCS) (VWR), 100 U/ml penicillin, 100 μg/ml streptomycin, (VWR) and 2 mM glutamine (VWR) in a final volume of 200 μl per well. Cells were also cultured at 10^5 cells/ml in serum-free medium as described previously in Pilling, D., Vakil, V. & Gomer, R. H. Improved serum-free culture conditions for the differentiation of human and murine fibrocytes. […]
The culture supernatants were collected after two or five days and assayed using an IL-6 ELISA kit (BioLegend, San Diego, CA) following the manufacturer's protocol, reading absorbance with a SynergyMX plate reader (BioTek, Winooski, VT). Statistics were analyzed using Prism software (Graphpad, La Jolla, CA).

human PBMC [5] = experiment: sialidase staining of human PBMC cultured with recombinant sialidases; type: cell-based
Text: In a similar experiment, cells were stained for NEU1, NEU2, NEU3, or NEU4 using antibodies.

Molecule	accumulation of TGF-β1 (human PBMC [1])	Sialidase activity ([2]; pH 6.4)	Sialidase activity ([2]; pH 7.0)	ability of SAP to inhibit fibrocyte formation (human PBMC [3])	fibrocyte formation / differentiation (human PBMC [3])	extracellular accumulation of IL-6 (human PBMC [4])	levels of NEU3 in PBMC (human PBMC [5])
B1	no significant effect	3.8 ± 0.8 μmole/min/mg protein	2.6 ± 0.9 μmole/min/mg protein	partially counteracted	potentiated fibrocyte formation		
B2	increased both cell-associated and extracellular TGF-β1	15.2 ± 1.0 μmole/min/mg protein	8.3 ± 1.2 μmole/min/mg protein	partially counteracted		significantly upregulated	
B3	increased both cell-associated and extracellular TGF-β1	16.4 ± 1.2 μmole/min/mg protein	8.9 ± 1.2 μmole/min/mg protein	partially counteracted	potentiated fibrocyte formation		upregulate levels of NEU3
